Source: patent publication EP0714402B9, “POLYMER MODIFICATION” (PolyMASC Pharmaceuticals plc, priority 1993, dated 1995)
One block for each compound: values may come before it.

Columns and labels:
[1] = blood clearance after subcutaneous injection with [125I]GM-CSF tracer; format: in vivo, BALB/c, male, 6-8 week-old mice; conditions: late clearing component; for fold increase of t1/2 over the control figure: figures in parentheses; for t1/2: subcutaneous, […] body weight, mice
Experimental: BALB/c, male, 6-8 week-old mice, weighing approximately 20g, were pooled into groups of three per condition, with adlib access to food and water. The reaction products were evaluated by FPLC and the proportions of individual species were estimated by fitting summated Gaussian curves to the FPLC profiles and estimating the area under the curve corresponding to each individual peak and expressing this as a % of the total area for the whole FPLC profile (Table 4b). The inventors have previously established that the individual peaks seen at low TMPEG concentrations (peaks 0, 1, 2 and 3) correspond to GM-CSF, PEG1-GM-CSF, PEG2-GM-CSF, PEG3-GM-CSF, respectively. At high TMPEG concentrations the peaks are broader and less well resolved thus fitting of individual Gaussian curves over all regions of the FPLC profile may not be possible. Thus peak 3 and the peaks for more highly substituted GM-CSF (potentially PEG4-7-GM-CSF) have been pooled. The peak eluting with the void volume peak is well resolved from the PEG4-7-GM-CSF and presumably represents aggregates, the area of this peak was used to estimate the proportion of aggregated material (Table 4b).
The different PEGylated samples and unmodified GM-CSF (Hoechst), all containing <4% [^125I]GM-CSF (Amersham, 1222 Ci/mmol) to serve as a tracer, were adminstrated at a dose of 0.0524µg in 100µl (3.45 x 10^-12 mole; equivalent to 2.5µg/kg body weight) by subcutaneous injection. The amount of TMPEG concomitantly administered is also indicated in Table 4a (MPEG has been shown not to influence t1/2, but does influence egress from the subcutaneous site). Up to eight 25µl tail vein blood samples were collected from each mouse using capillary tubes at various time points ranging between 10 minutes and 80 hours, to give a minimum of three samples per time point. Samples from the capillary tubes were washed immediately into 1ml of PBS containing 50 I.U. of heparin. Radioactivity was determined using a gamma counter (LKB 1270 Rackgamma) results being shown in Fig. 6a (open circles for untreated material, other symbols as indicated on the figure). Clearances for the materials of reactions A and B were clearly biphasic, presumably reflecting the large proportion of unmodified material remaining in these preparations (Table 4b). Half-lives were calculated using linear regression (log concentration versus time) for the slower clearing component if biphasic elimination was present (solid lines Figure 6a; dotted lines give the 95% confidence intervals).

[2] = degradation of 125I-GM-CSF on storage at 4°C, FPLC profiles; format: physicochemical; conditions: for relative amount of 125I, Peak 1: high molecular weight; for relative amount of 125I, Peak 2: intermediate fragments; for relative amount of 125I, Peak 3: low molecular weight
From the text: This process is slowed by PEG modification. […] When supplied, ^125I-GM-CSF has little or no low molecular weight labelled species. […] There has been generation of intermediate and low molecular weight fragments in both samples. The former are commensurate in size with proteolytic cleavage products and the latter either with free iodine or very small fragments (i.e. < circa 1kDa). Pegylation reduces the loss of high molecular weight species.

[3] = tested on: granulocyte-macrophage colony; test: granulocyte-macrophage colony assay (CFUgm) of GM-CSF growth stimulating activity; format: cell-based; conditions: versus comparable amounts of unmodified GM-CSF, 0.1 to 8 ng/ml, Fig.3a
From the text: (§1) A better approach is to perform a correlation analysis, plotting the response obtained with equivalent amounts of the modified and unmodified materials on an XY plot. Identical activity gives datum points randomly distributed about the line representing equal activity (the dashed lines). […] In contrast, the presence of inhibitory material, with or without loss of intrinsic activity, produces a departure, usually without convergence to the upper extremity.
(§2) Datum points are means of colony counts in triplicate dishes for three independent experiments (Fig. 3a) or of two independent thymidine uptake experiments (Fig 3b).

[4] = 3H-thymidine uptake assay of GM-CSF growth stimulating activity; format: cell-based; conditions: versus comparable amounts of unmodified GM-CSF, 0.0006 to 1.0ng/ml, Fig.3b
From the text: as §1, §2

[5] = partition of amphotericin in dextran/PEG biphasic system; format: physicochemical; conditions: 5% dextran T-500, 5% PEG-6000, pH 6.8, absorbance at 330 nm
[6] = tissue distribution, organ:blood concentration ratios; format: in vivo, mice; conditions: organ:blood concentration ratios versus GM-CSF, Fig.6b
Experimental: In order to establish the contributions to extended t1/2 we examined the tissue distribution of material prepared in an identical manner to reaction C, using an identical dose. At each of the times indicated, one aminal was sacrificed and organs/tissue including kidney, spleen, liver, lung, heart and femur were recovered and radioactivity was measured as above. […] The dotted and dashed lines indicate the blood levels of GM-CSF and PEG-GM-CSF respectively. The filled circles and open circles are the organ concentrations of PEG-GM-CSF and GM-CSF respectively. […] This is somewhat surprising since circa 24% of the reaction C mixture represents PEG1-GM-CSF (i.e. material below the renal threshold). […] Thus the degree of substitution desirable for individual targets will have to be assessed on a case-by-case basis. Table 4(A)

Compound: Reaction D: PEG-modified GM-CSF preparation, GM-CSF 0.524 µg/ml reacted with TMPEG 459.7 mg/ml; contains >50% of aggregates
fold increase of t1/2 over the control figure [1]: 15.3 fold
t1/2 [1]: 25.1 h

Compound: Reaction A: PEG-modified GM-CSF preparation, GM-CSF 0.524 µg/ml reacted with TMPEG 6.46 mg/ml
fold increase of t1/2 over the control figure [1]: 7.2 fold
t1/2 [1]: 11.7 h

Compound: PEG-CM-CSF: 125I-GM-CSF exposed to TMPEG at a molar ratio of 305:1
relative amount of 125I, Peak 1 ([2]; After 1 Month Storage at 4°C): 45.8
relative amount of 125I, Peak 2 ([2]; After 1 Month Storage at 4°C): 8.9
relative amount of 125I, Peak 3 ([2]; After 1 Month Storage at 4°C): 36.3
relative amount of 125I, Peak 1 ([2]; Before Storage): 81.1
relative amount of 125I, Peak 2 ([2]; Before Storage): 0
relative amount of 125I, Peak 3 ([2]; Before Storage): 12.4

Compound: Comparative Example 1: gm-CSF PEGylated with TMPEG made by a previously described method (WO90/04606, Example 1) [reference compound]
growth stimulating activity as assessed by granulocyte-macrophage colony assay [3]: additional inhibitory activity
growth stimulating activity as assessed by thymidine uptake [4]: loss of activity without significant inhibitory material

Compound: gm-CSF PEGylated using the process of Example 1: gm-CSF coupled with TMPEG made by the process of the invention
growth stimulating activity as assessed by granulocyte-macrophage colony assay [3]: no significant loss
growth stimulating activity as assessed by thymidine uptake [4]: no significant loss

Compound: Reaction B: PEG-modified GM-CSF preparation, GM-CSF 0.524 µg/ml reacted with TMPEG 19.75 mg/ml
fold increase of t1/2 over the control figure [1]: 11.1 fold
t1/2 [1]: 18.1 h

% material in the top (PEG-rich) phase [5]: 4.9 ± 0.2%
Compound: C[C@@H]1[C@H](O)[C@@H](C)/C=C/C=C/C=C/C=C/C=C/C=C/C=C/[C@H](O[C@@H]2O[C@H](C)[C@@H](O)[C@H](N)[C@@H]2O)C[C@@H]2O[C@](O)(C[C@@H](O)C[C@@H](O)[C@H](O)CC[C@@H](O)C[C@@H](O)CC(=O)O[C@H]1C)C[C@H](O)[C@H]2C(=O)O [control, amphotericin]

Compound: Reaction C: PEG-modified GM-CSF preparation, GM-CSF 0.524 µg/ml reacted with TMPEG 197.5 mg/ml
renal accumulation [6]: substantially reduced
fold increase of t1/2 over the control figure [1]: 10.3 fold
t1/2 [1]: 16.8 h
